{"source": "patent US20260055200A1", "about": "“COMBINATION THERAPIES” (Alligator Bioscience AB, priority 2022, published 2026)", "molecules": {"B1": {"name": "Mitazalimab: agonistic, human monoclonal (IgG1) antibody targeting CD40 (antibody, chains of the INN, looked up, V domains shown)", "VH": "EVQLLESGGGLVQPGGSLRLSCAASGFTFSTYGMHWVRQAPGKGLEWLSYISGGSSYIFYADSVRGRFTISRDNSENALYLQMNSLRAEDTAVYYCARILRGGSGMDLWGQGTLVTVSS", "VL": "QSVLTQPPSASGTPGQRVTISCTGSSSNIGAGYNVYWYQQLPGTAPKLLIYGNINRPSGVPDRFSGSKSGTSASLAISGLRSEDEADYYCAAWDKSISGLVFGGGTKLTVL"}}, "key": {"[1]": {"test_system": "human tumours transplanted into NSG mice; bladder cancer cells in hCD40tg mice", "details": "cited from earlier work"}, "[2]": {"test_system": "advanced stage solid malignancies", "details": "cited from earlier work"}, "[3]": {"test_system": "MB49-FFX-ACQ bladder carcinoma cells", "assay": "Chemotherapy-resistant MB49-FFX-ACQ tumour model in hCD40tg mice", "type": "in vivo, mouse", "details": "FIG. 7B/7C", "protocol": "Note: All mice were dosed with flat doses and mg/kg doses reported herein are based on an average mouse weight of 20 g (0.02 kg).\nAs FOLFIRINOX is composed of four individual components, it was dosed over the course of two days, for a total of three cycles. Mice first received oxaliplatin followed by irinotecan, followed the day after by folinic acid and 2 hours after that, mice were dosed with 5-fluorouracil.\nThree days following the initiation of the dosing of FOLFIRINOX, mitazalimab was administered in 5% glucose (dextrose buffer) at 5 mg/kg.\nThe dosing regimen applied in the two efficacy studies detailing number of doses and their relation to one another is outlined in FIG. 5. […]\nOn day 0, ten- to twelve-week-old female hCD40tg mice were injected subcutaneously on the right hind flank with 0.4×10^6 MB49-FOLFIRINOX-ACQ in a volume of 100 μl PBS. […] Controls or antibodies were administered as outlined in Table 24, and mice were monitored shortly following each treatment to detect potential signs of toxicity. Tumor volume was measured three times weekly with a calliper and calculated as: ((width/2×length/2×height/2)×[…]). […]\nCollected data was analyzed using Kaplan Meier and Log-rank (Mantel-Cox) for survival and Mann-Whitney, non-parametric, 2-tail for FACS data and tumor growth using GraphPad Prism program (*, p<0.05; **, p<0.01). […]"}, "[4]": {"test_system": "whole blood transcriptome", "assay": "RNA-sequencing of peripheral whole blood of MB49 tumour-bearing hCD40tg mice", "type": "in vivo, mouse", "details": "for Differentially expressed genes, p. adj < 0.05 / Differentially expressed genes, p. adj < 0.05 & FC > 2: of 14485 total genes", "description": "Peripheral blood was collected from the mice at the end of the first cycle and subjected to RNA-sequencing to identify pharmacodynamic biomarkers. RNA was extracted from whole blood after red blood cell lysis using GLOBINclear™ Kit, mouse/rat (AM1981, Invitrogen), and Mouse RiboPure™-Blood RNA Isolation Kit (AM1951, Invitrogen) according to the manufacturer's instruction. Purified RNA was stored in RNase-free microfuge tubes (AM12425, Invitrogen), and frozen at −80 C until further use.\nRNA library preparation and sequencing was performed by the Center for Translational Genomics (CTG, Lund University). RNA integrity was analyzed with the TapeStation 4200 (Agilent Technologies), using Agilent RNA ScreenTape and reagents (5067-5576, 5067-5577, Agilent Technologies). RNA concentration was analyzed with the Qubit Flex (Q33327 Invitrogen Thermo Fisher Scientific), using the QuantIT RNA HS Assay Kit (Q33140, Life Technologies). cDNA sequencing libraries were prepared using TruSeq® Stranded mRNA Library Prep kit (20020594, Illumina). The libraries were sequenced in a NovaSeq 6000 System (20012850, Illumina), using the NovaSeq 6000 SP Reagent Kit, 300 cycles v1.5 20028400). The reads were aligned to the mouse reference genome GRCm38 (mm10) using the STAR software (v 2.5.0a.13).\nR (v4.0.3) and R studio (v1.4.1103) were used to perform quality control and thresholding, normalization, dimensionality reduction, and visualization as well as differential gene expression analysis. Protein coding genes with a minimum of 5 reads in 3 or more samples were kept for analysis. For data visualization, filtered raw counts were normalized using the variance-stabilizing-transformation method in the DESeq2 package (version 1.38.3).\nPrincipal component analysis (PCA) was used to visualize the data, and assess the effects of the treatment at transcriptomic level.\nTo identify differentially expressed genes among treatment groups, filtered raw counts were normalized using the median of ratios method in the DESeq2 package. Treatment groups were compared using the negative binomial Wald's test (adjusted-p.value [adj-p.val]<0.05, fold change>2).\nPathway enrichment analysis was performed using EnrichR (v3.0) by querying differentially expressed genes among treatment groups onto the gene ontology database (GO, GO_bioprocess_2018). Re-occurring and highly ranked pathways (adj.p-value<0.05) were selected and harmonized throughout the samples using gene set variation transformation (GSVA). The resulting GSVA scores were plotted as a spider plot for pathway activity comparison among the groups."}}, "note": "Where two headings read alike, the source gives them in different places."}
{"molecule": "B1", "values": [{"measurement": "immunity to tumour re-challenge", "setting": "[1]; bladder cancer cells in hCD40tg mice", "result": "at least 5 months"}, {"measurement": "effect on tumour growth and survival in combination", "setting": "[1]; combined with checkpoint inhibitors, vaccination or chemotherapy (e.g. mFOLFIRINOX), hCD40tg mice", "result": "synergistically enhanced effect"}, {"measurement": "anti-tumour efficacy in vivo", "setting": "[1]; human tumours in NSG mice and hCD40tg mice", "result": "immune-mediated and antibody-dependent cell-mediated cytotoxicity (ADCC)-dependent anti-tumour efficacy"}, {"measurement": "best response", "setting": "[2]; 400 μg/kg intratumoural", "result": "stable disease (SD) in one patient with renal cell carcinoma"}, {"measurement": "patients with increases in liver enzymes or bilirubin", "setting": "[2]; IV administration", "result": "3 of 5"}, {"measurement": "dose-limiting toxicities (DLTs) observed", "setting": "[2]; both intratumoural: grade 3 abdominal pain, grade 3 cholecystitis", "result": "Two"}, {"measurement": "maximum tolerated dose (MTD)", "setting": "[2]; in vivo", "result": "No maximum tolerated dose (MTD) was identified"}, {"measurement": "patients with increases in liver enzymes or bilirubin", "setting": "[2]; intratumoural administration", "result": "9 of 18"}, {"measurement": "effect on tumour growth in chemo-resistant tumours", "setting": "[3]", "result": "synergises with FOLFIRINOX"}, {"measurement": "expression of genes involved in response to type-1 IFN and TLR signaling", "setting": "[4]; alone or in combination with FOLFIRINOX", "result": "high expression"}, {"measurement": "Differentially expressed genes, p. adj < 0.05", "setting": "[4]; vs Folfirinox", "result": 3953}, {"measurement": "Differentially expressed genes, p. adj < 0.05 & FC > 2", "setting": "[4]; vs Folfirinox", "result": 1717}, {"measurement": "Differentially expressed genes, p. adj < 0.05", "setting": "[4]; vs Mita-Folfirinox", "result": 453}, {"measurement": "Differentially expressed genes, p. adj < 0.05 & FC > 2", "setting": "[4]; vs Mita-Folfirinox", "result": 221}, {"measurement": "Differentially expressed genes, p. adj < 0.05", "setting": "[4]; vs untreated", "result": 2114}, {"measurement": "Differentially expressed genes, p. adj < 0.05 & FC > 2", "setting": "[4]; vs untreated", "result": 849}]}
